The chains are these.
B1: Bacillus subtilis clamp-loader τ subunit (natural protein, UniProt P09122 1-563, looked up)
chain: MSYQALYRVFRPQRFEDVVGQEHITKTLQNALLQKKFSHAYLFSGPRGTGKTSAAKIFAKAVNCEHAPVDEPCNECAACKGITNGSISDVIEIDAASNNGVDEIRDIRDKVKFAPSAVTYKVYIIDEVHMLSIGAFNALLKTLEEPPEHCIFILATTEPHKIPLTIISRCQRFDFKRITSQAIVGRMNKIVDAEQLQVEEGSLEIIASAADGGMRDALSLLDQAISFSGDILKVEDALLITGAVSQLYIGKLAKSLHDKNVSDALETLNELLQQGKDPAKLIEDMIFYFRDMLLYKTAPGLEGVLEKVKVDETFRELSEQIPAQALYEMIDILNKSHQEMKWTNHPRIFFEVAVVKICQTSHQSAADLPEVDMLMKKIQQLEQEVERLKTTGIKAAAESPKKEAPRVPKGGKSNYKAPVGRIHEILKEATRPDLDLLRNSWGKLLAHLKQQNKVSHAALLNDSEPVAAGSAAFVLKFKYEIHCKMVAEDNNGVRTNLEQILESMLGKRMDLIGVPEAQWGKIREEFLEDHQQENEGSNEPAEEDPLIAEAKKLVGADLIEIKD

Holding throughout (test): native MS
For data set [1], the target named is Bacillus subtilis clamp-loader δ subunit (yqeN) (Bacillus subtilis) (UniProt P54459).
Data set [2] addresses T1, Bacillus stearothermophilus DnaB helicase (Bacillus stearothermophilus, UniProt Q9X4C9 1-454).
T1 sequence (looked up): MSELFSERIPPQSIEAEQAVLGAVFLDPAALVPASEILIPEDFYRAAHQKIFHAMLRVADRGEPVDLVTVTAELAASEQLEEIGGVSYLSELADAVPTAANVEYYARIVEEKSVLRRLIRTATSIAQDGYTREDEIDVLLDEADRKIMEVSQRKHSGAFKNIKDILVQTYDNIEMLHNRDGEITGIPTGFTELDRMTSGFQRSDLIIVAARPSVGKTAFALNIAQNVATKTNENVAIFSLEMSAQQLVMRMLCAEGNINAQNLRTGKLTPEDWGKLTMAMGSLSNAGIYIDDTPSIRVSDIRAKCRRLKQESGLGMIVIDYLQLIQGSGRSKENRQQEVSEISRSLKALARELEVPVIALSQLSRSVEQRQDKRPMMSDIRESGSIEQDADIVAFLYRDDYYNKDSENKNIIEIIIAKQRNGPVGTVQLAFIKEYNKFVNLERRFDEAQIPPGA

Data set [3] deals with the molecule itself.
Data set [4] concerns the molecule itself. This is another data set of the same source.
The target in data set [5] is B1.
Data set [6] concerns the molecule itself. This is another data set of the same source.
The target of data set [7] is B1. The source holds these as a separate data set.
Data set [8] concerns the target B1. The source holds these as a separate data set.

Results on four molecules are retold here after paper PMC3643586 (Nucleic Acids Research, 2013).

“And” between values parts separate entries of the source, which are not always exact repeats. Equal entries are not always repeated. Where two headings read alike, the source gives them in different places.

Regarding “Bacillus subtilis clamp-loader δ subunit (yqeN) (from UniProt P54459 1-347) (natural protein)”, the stoichiometry N (subunits in the oligomer) in data set [1] stood at 2.
On to B1, for which the “stoichiometry N” value in data set [2] is 3 τ per DnaB hexamer; in “native MS [3]”, 3 subunits in the oligomer and 2 subunits in the oligomer and 5 subunits in the oligomer; in “native MS [4]” it was 4 subunits in the oligomer.

B2: Bacillus subtilis clamp-loader δ′ subunit (holB) (natural protein, UniProt P37540 1-329, looked up)
chain: MAISWKEMNELQPRVMKLLYNSIEKDRLSHAYLFEGKKGTGKLDAALLLAKSFFCLEGGAEPCESCRNCKRIESGNHPDLHLVQPDGLSIKKAQIQALQEEFSKTGLESHKKLYIISHADQMTANAANSLLKFLEEPNKDTMAVLITEQPQRLLDTIISRCQTLPFQPLQPKAIEDRLIEQDVSPHMARLLANMTNNVAEAVELSRNDEFAESRAKVIKLYEVLHQRKGHAFFFIQDQWMPFFKEKTHQEMGLDMLLLIYRDVLSIQIGNEDKLIYQDLFQSIKQHALQSTQQSVTNQILAVLEAKKRLHSNVNVQGLMEHLVLMLQEG
As for B2, the “stoichiometry N” value was 3 τ per δ′ and 2 τ per δ′ in data set [5]; 2 subunits in the oligomer in “native MS [6]”.

B3: Bacillus subtilis clamp-loader δ subunit (yqeN) (natural protein, UniProt P54459 1-347, looked up)
chain: MVFDVWKSLKKGEVHPVYCLYGKETYLLQETVSRIRQTVVDQETKDFNLSVFDLEEDPLDQAIADAETFPFMGERRLVIVKNPYFLTGEKKKEKIEHNVSALESYIQSPAPYTVFVLLAPYEKLDERKKLTKALKKHAFMMEAKELNAKETTDFTVNLAKTEQKTIGTEAAEHLVLLVNGHLSSIFQEIQKLCTFIGDREEITLDDVKMLVARSLEQNIFELINKIVNRKRTESLQIFYDLLKQNEEPIKIMALISNQFRLILQTKYFAEQGYGQKQIASNLKVHPFRVKLAMDQARLFSEEELRLIIEQLAVMDYEMKTGKKDKQLLLELFLLQLLKRNEKNDPHY
For the molecule B3, the “stoichiometry N” value in data set [7] is 3 τ per δ; in data set [8], 2 τ per δ.

In general, stoichiometry N refers to a count of units in the complex or per binding partner.
